Measured values: the DeepSol protein solubility set

Test: soluble on expression in E. coli; label from the status in PepcDB or PDB records
In the case of “GPGSMLRRQLHLSAIGGVSAAAAAVLDGIGPSSAAAATGTLSSSSTSLSVMASVSPLLMPCRGVKLVNPIGKQGSQHYGLEPKLEAGRDTQLKHTEMYDGYTDDFGVFKEGPPVTLRLEYVRSPDHGYSQHILQKDIWSPFQVGANMMSYTPLYYDWKGFSSRDYFGHRSGTNPGSKVLLGHYRRDEVRSWGYRIMVNHKPQKRIPKWLACVVHIPRKKTFLGFFLYANGAYVAELLTYKQLPRIIYNKAFQGCLPTIGQTVSLTEVTYGKEIHSVEMYPGHGGVICRASGTAAVVLRGSEPNLVPLLLPSKEVRLFDNMCHAVFGRRAGVMYNKQRNFSKRSVEENMPHRPKVHSKTKRVSSHPAGGGNGGSPNLLTPLDWRIHPRNCVKTKYWLSGYILRGRQYNRNQTVADLKSKTYSWANRDPVYR”, the “soluble on expression in E. coli” value is reported as “not soluble”.
In the case of “GPGSMLRRTLRRLMPSDAIGSVHPDVLWGYQQGQYAGPGWANFVKSLPLETLAMQGGSTMANLNDRAGTFLDPEDPRHPLALMQFGIMGKMDGTFHQLAYGDFGRVPKGSRLMQVLYENYLEPFSMNRVCAQLYFYQKVPNNYHASVDATAEYVGQTASLVGQVVVGLGACIMEGVTIRADTNCVYIAEGVQILENTCIMSDAPTDLLAYQRHELLNPYQQWDGMDGVTRIMPNTIIESNCYLDGCSIGSFNRIGHNTKIMKGVTTGIMVHIMPGSVVTADTKIGDGELWGGAPACKIGEVSKFEYKRPYYASLLHRESVAESYRNMSRYGDQFVHYMNAMGQLETLMIHYEDHVTPGIKAKVRDFEEGREPFHHTITRIAQGWSPANRPDDKNFAMAPPAPGVKLFAEHNTDSSPSEWNGSYANITNIFNDFRW”, the “soluble on expression in E. coli” value is reported as “not soluble”.
For “GPGSMMIDGAINPREWFNWHPKEYQPWYFDRHKFIYEQGQYAAYNHLLCHQAYLKDIEHLTRYPEPRTFVIDCRMSPAKMHRWVPHSMWLPRDEVEYALQLTNDEFQEMYGFIKPAKDDDVILISHNGLASEQAGWEWRKQYYQHVYNYRGGTNELFGEDYQDFILKDRLDPWKGPYPQKSIFVDKWSKRKVLTRTGPFDRQYEMQDFALPDLELERPRHSEDGPRQNMPYGLQ”, the “soluble on expression in E. coli” value was “not soluble”.
With “GPGSMMNLAPDTITIGAQRNTELLLLEYLRSTNPHIHALWQRHPNKDNDASSSSAASSPSKDTRGASGSDVGDANASSSSAASALRESFDYTEPRLYRAAHVHFLMENLSVAPQGFSSLYPSRPWIVYWALQAADVLNSMESEVLHRTPPSAIVAFLHSCLSVDHTCQAEVNNRLAAAATSARGAPEGKDPHVTGTPLESSTTSVTLERDSADATSATLMPPVEDAAEVAEGPSRPVMGFAGGATHQEPHIASSYAACCALAMLSWYGDGAPLRQLPRAAIKRWLLTLRNEDGSFRVHGGGESDIRASYCAAVITTLLGLDDPTTFDGEAGRCEFVDDVRDVPVLTLQTARFVAACQTHEGGFTCSPTASEAHGAYTQCGLAALLLMKQPHMVHQASLRRWLAARQLNYEGGFNGRTNKLVDSCYSHWIGASHVLLRTVEAYTKCFTEVPTTHSRNGDGTGGCEDGYREDVDCTPSARCLRAREVVLLDHAQLLDAKMIHASADDAWDRAESAHLTRLGVVDQFLGADDAVLRSAEEKRTAVTALYERLLESRLAAVRSCDGNGDAAAGDVQGSLEAWRARQAFLYADVGDFYFNQRKLQDYVLRCCQDSEIGGLMDKPQTAHDGYHTCYSLSGLSAAQNLQYRTHVTAADAAYPSTYLERAFARSYLPGRESGSTSGNEEGSCGVVLGLPNTSAAAESMLLRTTSPIFNIHQSRVLSALRAWSVKAFV” the “soluble on expression in E. coli” value was “not soluble”.
In the case of “GPGSMMSSATLSDVETLENIPRGAPIGGSGIVSGTASEGSSRGAERSTVANVSEDGERGRREEEEDRKPLIMDQSVIMDEEPYISPAKAKKISWKCGLCGYYVLAMDHNGNPLELTNSPSGEPLPMSCPRCMLLHHDWEPAVPFDDFNNHANIRSKQSNSYVISDQKSGKQAGFVPARTPAERDLKKTSADITRILQEVEDRWRNYAPRESPTSREQGPKGRLMAYYCDKCNRELLRMDQYGELVPMVSDKEGKPLPIVCPGCKEEHSEWVVRPFTVTR”, the “soluble on expression in E. coli” value is reported as “soluble”.
For “GPGSMPLERSFIDPGHASMGYEAGLIPRLRRDSIVRGVLEENEDMLREIDLLRDTVTKQAQELFTATKRIHVLESRLARLEGAEDASHERTDDSDNVEEVTSVDKAGILRSIFRAISSCQFGDRHTRIRAYKQGLVRKSAEKARDFGEKSEKKSELPGKEQQDFLGHAFHESNKRLDEVSSLLQSYRKTPSFLVSAYDELVIDCMMEIIRLSKKMNLMTVGDFGALAD”, the “soluble on expression in E. coli” value was “not soluble”.
In the case of “GPGSMPPSTAAPYALRTDKLKPLEGYVAGCSVSPAEVASQVASSLQPVVLAICGSFNPIHNAHLKLYDAAKRSVDGADGRVVLGGFLSPVGDAYGKPGLRSAADRVHIMRKALCHHPDLNVDTWECQQPVYMRTFFVLQALEEHINAWYAESEPAAVEWLASHDRRVRVAFVCGADLFSSFWIPGCWQLRLLRQLLDSFHLVVVHRDGGRGCVRGADDFAHVCQTAPLLSETAEGGEKIEIDMSQYTFTFATFSAPDDTSSTAVRAAAMELARTPQGDAVTRAALQSRLRAMLPEAAVQSVVELYGKVLTS”, the “soluble on expression in E. coli” value is reported as “not soluble”.
In the case of “GPGSMQLQSRAPEHFSTPFFSSPSSSVAYESGCSLDALERLVHFTGAGADACLYAVHPPQAKGTDSAALTPTTEGLRYWLNPSVRARPTTATCEITNLGPPFFASTSTAVLRISATPLFVDGRCFPTRCVVSLATSAQRLDGVSLRPVVVTEWNLTASGAAGVCTTTVPLRTLYHLAVLISSSAPATGVEEVRLYLHLRFMGCSDGSDTHRIAAVRLRYEQLGTAAEVLPQLLQRRQRAAAHVMLPSPYDVKYHSEGRFTRAGAPLEEVEVGVIAGSSTATSSGRKDMGDDAGKSLFVGAKERRTHTSPPSSTRMRSDGCETRGDRRRGRAPRGC”, the “soluble on expression in E. coli” value is reported as “soluble”.
For “GPGSMQTAHAHTMTAQMKVLKPKTVFDNRPDEARKPIKLILLGDSAVGKSKLVERFLMQRYIPVQMSTYALTLYRYDFVTEDGEEVDVDIWDTAGQERFATVHPSYYHDAHACILVFDSTRKATYKNLEKWLSEMRVYREHIPCLVACNKIDTDPSVTTKSFAFAEKHNFPLYYVSAADGSNVVQLFESAISTAAAYKKNPAKDDFMTQVIGILKEDKTAAGASAVSS”, the “soluble on expression in E. coli” value was “soluble”.
For “GPGSMRLLSFSNVPLFLALFPPLPLLSCASVWHTRRHSFSEIFFVGSFIAAPFRCIVSPRVALYRARLRFLAPAACTRALPFAYTGQQGERQIKMITATADAGSAAKAAAAPPARMFDCLDAASKERVTMLLSHYQVLLPVEQASFMQELERYNQEQQTTALERNKAGEVWIRYTNPRLQAVQARDPAYVQRSISHTAASRGSKGDAAPEEATAPCSLEDLVHIRGMFGEPEGVPIRVGKMSLYEKLQQNMRNRRSTACGSLANTTVSSIPTAADAGHGAARVSVPFGPFAEAPAKPAEGKREVGDNASPKTSAQSESGERAVALVCADTFPSHTSSVRPSAPYRNNAYQAVRLAMSSPGYTATTQPTSVAELQTPLDGVKPVLNTTAFPITEEELRDWFDELDVHGRGVLSVEEFQRYMQSLERDLGVPTEYATLELDGAQLAKDGWLSFEAFSYLVLRFVRA”, the “soluble on expression in E. coli” value was “not soluble”.
For “GPGSMRPSRKRQARRQHPWQQRSVAHKAQRAPSSGHGASGVEHLPRDAVVHVAPRQQHRPVGQAHRRIKRHRVVLRQQKVVPHKRHSRARHAHSPTHRHRVLAQQEVAVNKRHHGAATGRNTALHRHAQPQRRLHRQPVHVERTARRQRHAAN”, the “soluble on expression in E. coli” value was “soluble”.
For “GPGSMRRVVITGLGLVSPLAGDVEYSWKRLLEGKSGVRRITEFDVSDLSCQIAARIPVGDGTNGTYNADLHMESKEQRKVDAFIVYAIAAADQALADAEWFPKSDEDQICTGVLIGSGIGGIEGIVEAGYTLRDKGPRRISPFFIPGRLINLASGYVSIKYGLRGPNHSVVTACSTGAHAIGDAARLIALGDADVMLAGGTESPINRISLAGFSACRALSTCRNDDPERASRPYDVDRDGFVMGEGAAIVVLEELEHAKKRGARIYAEIIGYGLSGDAYHITAPSESGEGAQRSMMAALKRAQVNVSELDYINAHGTSTMADVIELAAVERVLGYYAPQVSMSSTKSSIGHLLGAAGAAEAIFCVLAIRDNIAPATLNLENPSIETKIDLVPHKPRERKIDTVLSNSFGFGGTNASLVMRRFSE”, the “soluble on expression in E. coli” value was “soluble”.
In the case of “GPGSMSAHDSSAMALIAHMNDIEQQRRVLSMSQREQEAKIAFTTAEKEQLVQAAKAAEAEEAQLKDDLEVLATEQQQLELQKMEATDRLRRTQAEEALHTAAVEADLQALAKEKVLWHERAQDLESLRRSWEEDAATSSCIAALRQESEMLAPLKAEKTAVEDALAETMAAIEKVRAEQQARLTCLGSVGAPADAVQRSGLARALASMHGSALSDGNTATVDDDDTAAALEEEIKRADYEAAQVTARHGRTIAVLQREVDALSTRAGELQQLLSSIGASWQEVLSRTRDLQHCKETGLCRRCLT”, the “soluble on expression in E. coli” value is reported as “soluble”.
